# In paper PMC2566588:
# Biological target: CXCR4CFP (human) (UniProt P61073)
# Assay: FRET or BRET; sensitized-emission FRET imaging as above; cells treated with chemokines (CCL3/MIP1α, CCL5/RANTES or CXCL12/SDF-1) for 20 min before imaging; N-FRET on the plasma membrane against the unstimulated control
# Chain of CCR5YFP, P51681 1-352 (receptor; other documents disagree on this pair) (P51681 whole entry): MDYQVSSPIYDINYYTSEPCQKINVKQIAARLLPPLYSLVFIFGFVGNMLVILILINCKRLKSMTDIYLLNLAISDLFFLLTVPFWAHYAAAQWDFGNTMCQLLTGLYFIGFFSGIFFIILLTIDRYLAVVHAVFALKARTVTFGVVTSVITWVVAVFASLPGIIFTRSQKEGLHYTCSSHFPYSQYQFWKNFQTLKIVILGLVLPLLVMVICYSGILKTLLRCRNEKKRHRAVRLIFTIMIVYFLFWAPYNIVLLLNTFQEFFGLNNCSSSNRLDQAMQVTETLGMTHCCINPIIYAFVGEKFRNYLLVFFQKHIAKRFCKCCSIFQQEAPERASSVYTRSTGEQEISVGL
# Chain of CXCR4CFP (human) (P61073 whole entry): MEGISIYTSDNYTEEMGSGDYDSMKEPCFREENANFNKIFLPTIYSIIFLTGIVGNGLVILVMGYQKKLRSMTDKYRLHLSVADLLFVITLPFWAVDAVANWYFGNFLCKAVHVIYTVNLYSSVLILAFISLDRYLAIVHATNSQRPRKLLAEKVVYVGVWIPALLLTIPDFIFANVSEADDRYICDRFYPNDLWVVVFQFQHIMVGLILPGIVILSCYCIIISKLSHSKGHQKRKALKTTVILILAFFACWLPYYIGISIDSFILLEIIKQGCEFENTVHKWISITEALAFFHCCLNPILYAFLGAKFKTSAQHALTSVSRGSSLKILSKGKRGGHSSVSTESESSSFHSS
substance,measurement,value
"CCR5YFP, P51681 1-352 (receptor; other documents disagree on this pair)",increase of N-FRET with CCL3/MIP1α against the unstimulated control,30%
same,increase of N-FRET with CCL5/RANTES against the unstimulated control,30%
